Results from patent US20250376539A1 (KIRA PHARMACEUTICALS SUZHOU, published 2025).

T1: recombinant cyno C2a, C-terminal 6His-tag, made in house (CHO cell expression) (cynomolgus monkey, UniProt P06681 244-752 (human entry))
T1 chain: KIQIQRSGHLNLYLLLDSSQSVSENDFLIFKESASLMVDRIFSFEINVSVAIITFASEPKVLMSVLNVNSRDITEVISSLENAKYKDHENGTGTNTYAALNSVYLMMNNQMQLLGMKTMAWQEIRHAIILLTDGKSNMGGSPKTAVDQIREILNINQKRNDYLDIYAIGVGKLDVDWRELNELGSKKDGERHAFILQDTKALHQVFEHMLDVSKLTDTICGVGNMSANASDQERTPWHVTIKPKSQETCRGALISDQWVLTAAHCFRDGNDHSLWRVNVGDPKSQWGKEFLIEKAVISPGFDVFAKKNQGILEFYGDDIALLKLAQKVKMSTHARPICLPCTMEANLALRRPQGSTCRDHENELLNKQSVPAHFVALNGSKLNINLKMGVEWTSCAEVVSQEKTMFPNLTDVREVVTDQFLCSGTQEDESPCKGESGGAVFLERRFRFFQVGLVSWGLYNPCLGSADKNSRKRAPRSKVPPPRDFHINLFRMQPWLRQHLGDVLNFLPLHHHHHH

T2: recombinant human C2a, C-terminal 6His-tag, made in house (CHO cell expression) (human, UniProt P06681 244-752)
T2 sequence: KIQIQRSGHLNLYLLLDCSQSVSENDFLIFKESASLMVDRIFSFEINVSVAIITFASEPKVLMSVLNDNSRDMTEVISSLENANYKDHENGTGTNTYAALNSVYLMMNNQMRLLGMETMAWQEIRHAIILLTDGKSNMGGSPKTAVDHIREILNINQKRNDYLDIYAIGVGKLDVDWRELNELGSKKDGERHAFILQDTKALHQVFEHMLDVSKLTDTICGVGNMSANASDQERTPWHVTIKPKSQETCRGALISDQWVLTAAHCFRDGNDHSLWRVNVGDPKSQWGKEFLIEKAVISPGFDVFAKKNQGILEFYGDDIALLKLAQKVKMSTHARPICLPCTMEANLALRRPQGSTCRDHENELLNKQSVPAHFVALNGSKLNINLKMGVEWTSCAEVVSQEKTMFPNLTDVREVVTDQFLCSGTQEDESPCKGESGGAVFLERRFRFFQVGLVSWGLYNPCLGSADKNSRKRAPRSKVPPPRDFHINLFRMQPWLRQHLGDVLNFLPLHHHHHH

T3: recombinant human complement C2 (NP_000054.2), C-terminal 6His-tag, made in house (CHO cell expression) (human, UniProt P06681 21-752)
T3 construct: a linker before the tag is not described; also called human C2; Human C2
T3 sequence: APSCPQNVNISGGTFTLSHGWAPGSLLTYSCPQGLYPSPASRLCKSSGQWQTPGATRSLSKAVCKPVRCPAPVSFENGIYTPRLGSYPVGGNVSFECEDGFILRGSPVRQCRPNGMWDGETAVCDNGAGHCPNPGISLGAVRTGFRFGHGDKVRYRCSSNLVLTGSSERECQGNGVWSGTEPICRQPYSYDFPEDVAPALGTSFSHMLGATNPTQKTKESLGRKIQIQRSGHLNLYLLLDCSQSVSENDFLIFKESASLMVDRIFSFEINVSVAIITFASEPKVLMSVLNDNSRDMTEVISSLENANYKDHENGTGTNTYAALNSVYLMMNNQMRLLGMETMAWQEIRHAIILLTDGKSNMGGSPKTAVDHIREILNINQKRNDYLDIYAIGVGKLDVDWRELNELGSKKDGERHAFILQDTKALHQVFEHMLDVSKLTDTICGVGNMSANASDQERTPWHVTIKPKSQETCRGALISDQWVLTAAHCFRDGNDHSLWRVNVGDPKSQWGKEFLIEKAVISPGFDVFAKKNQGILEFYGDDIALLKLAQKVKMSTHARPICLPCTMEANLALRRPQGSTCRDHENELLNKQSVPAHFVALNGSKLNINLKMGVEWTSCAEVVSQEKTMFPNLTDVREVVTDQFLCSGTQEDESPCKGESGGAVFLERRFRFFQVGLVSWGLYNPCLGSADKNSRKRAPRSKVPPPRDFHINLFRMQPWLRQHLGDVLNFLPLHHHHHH


Key:
[1] = target: T1, recombinant cyno C2a, C-terminal …; assay: ELISA
[2] = target: T1, recombinant cyno C2a, C-terminal …; assay: binding kinetics (BLI presumed)
[3] = target: T2, recombinant human C2a, C-terminal …; assay: binding kinetics (BLI presumed)
[4] = target: T1, recombinant cyno C2a, C-terminal …; assay: ELISA on cyno C2a, OD450nm against log Ab conc. (nmol/L)
[5] = target: T3, recombinant human complement C2 …; assay: BLI (Gator), antibody on probe; 600 s association at pH 7.4, 600 s dissociation at pH 5.8
Method: (§1) The histidine mutant constructs in Table 4 were tested for their pH-dependent dissociation from human C2. Probe-immobilized anti-C2 antibodies were incubated with C2 at pH 7.4 for 600s, followed by a 600s dissociation period in K Buffer at pH 7.4 or pH 5.8. The data were processed and analyzed by the Gator evaluation software.

[6] = target: T3, recombinant human complement C2 …; assay: BLI (Gator); ratio of dissociation at pH 5.8 to pH 7.4
Method: as §1

[7] = target: T2, recombinant human C2a, C-terminal …; assay: ELISA on human C2a, OD450nm against log Ab conc. (nmol/L)

Row | Binder | EC50 [1] [nM] | Kd [2] [nM] | koff [2] [s⁻¹] | kon [2] [M⁻¹ s⁻¹] | Kd [3] [nM] | koff [3] [s⁻¹] | kon [3] [M⁻¹ s⁻¹] | binding result [4] | Dissociation (%) pH 5.8 [5] [%] | Fold dissociation pH 5.8/pH 7.4 [6] [fold] | binding result [7]
1 | anti-C2 antibody 69.44 (antibody, IgG4, V domains shown, Recombinant) VH: QVQLVQSGAEVKKPGASVKVSCKASGYSFTTYYMYWVRQAPGQGLEWMGIITPSGGSTTYAQKFQDRVTMTRDASTTTVYMELSSLRSEDTAVYYCARGYEGSYGFDHWGQGTLVTVSS VL: SYELTQPPSVSLSPGQTASITCSGDKLGNKYTCWYQQKPGQSPVLVIYQDNKRPSGIPERFSGSNSGNTATLTISGTQAMDEADYYCQTWDSSTAVFGGGTKLTVL | 0.119 | 0.376 | 8.79e-05 | 234000 | 0.347 | 6.68e-05 | 193000 |  |  |  | 
2 | anti-C2 antibody 3.2 (antibody, IgG4, V domains shown, Recombinant; also called WT; "WT" 3.2) VH: EVQLLESGGGLVQPGGSLRLSCAASGFTFRHYAMSWVRQAPGKGLEWVSLISGSGASTFYADSVKGRFTISRDNSENMLYLQMNSLRAEDTAVYYCAKDSLAVAGSEYFQHWGQGTLVTVSS VL: SYVLTQAPSVSVAPGQTARITCGGNYFGGKSVHWYQQRPGQAPVLVVYDDSDRPSGIPERFSGSKSGNTATLAISRVEAGDEAAYYCQVYDTSSDHWVFGGGTKLTVL |  |  |  |  |  |  |  | no binding (tested: 100 nmol/L) | 8.2 | 2.3 | no binding (tested: 100 nmol/L)
